Experimental data as given in US20240116985A1 (published 2024).
Starred links: 1 amine or outer side, 2 acyl side, 3 side chain; linkers in the order of their positions; H or OH if unused. Positions of bridges follow the written chain, without caps; N, C: chain ends. Non-standard residues stand in square brackets, D forms with d. Primed or numbered codes have the meaning given here. PyrS2″ = (S)-3-amino-1-((pent-4-en-1-yloxy)carbonyl)pyrrolidine-3-carboxylic acid (stapling residue), C=CCCCOC(=O)N1CC[C@@](N[*:1])(C(=O)[*:2])C1; B5(4) = 2,2-bis(4-pentenyl)glycine = 2-amino-2-(pent-4-en-1-yl)hept-6-enoic acid (stitching residue), C=CCCCC(CCCC=C)(N[*:1])C(=O)[*:2]; B5(5) = 2,2-bis(4-pentenyl)glycine, 2-amino-2-(pent-4-en-1-yl)hept-6-enoic acid (stitching residue), C=CCCCC(CCCC=C)(N[*:1])C(=O)[*:2]; PyrS2 = (S)-3-amino-1-((pent-4-en-1-yloxy)carbonyl)pyrrolidine-3-carboxylic acid, C=CCCCOC(=O)N1CC[C@@](N[*:1])(C(=O)[*:2])C1; B5(27) = 2-amino-2-(pent-4-en-1-yl)hept-6-enoic acid (two alkene side-chain arms), C=CCCCC(CCCC=C)(N[*:1])C(=O)[*:2]; F2PipAbu = (S)-2-amino-4-(4,4-difluoropiperidin-1-yl)butanoic acid, O=C([C@H](CCN1CCC(F)(F)CC1)N[*:1])[*:2]; MorphAsn = (S)-2-amino-4-morpholino-4-oxobutanoic acid, O=C(C[C@H](N[*:1])C(=O)[*:2])N1CCOCC1; Phe(3-COOH) = N[C@@H](Cc1cccc(C(=O)O)c1)C(=O)O; 2F3MeF = Cc1cccc(C[C@H](N[*:1])C(=O)[*:2])c1F; Bta = N[C@@H](Cc1csc2ccccc12)C(=O)O; Lys(iPr) = CC(C)NCCCC[C@H](N)C(=O)O; hTyr = N[C@@H](CCc1ccc(O)cc1)C(=O)O; αAllylPro = C=CC[C@@]1(C(=O)O)CCCN1; tBuAla = CC(C)(C)C[C@H](N)C(=O)O; 3Thi = N[C@@H](Cc1ccsc1)C(=O)O; Cha = N[C@@H](CC1CCCCC1)C(=O)O; PyrS2(4) = not defined here; hSer = N[C@@H](CCO)C(=O)O

T1: B-cat-Halo (beta-catenin HaloTag NanoBRET construct expressed in HEK293 cells) (UniProt P35222 1-781, HaloTag NanoBRET 618 Ligand bound to the HaloTag)
T1 sequence (looked up): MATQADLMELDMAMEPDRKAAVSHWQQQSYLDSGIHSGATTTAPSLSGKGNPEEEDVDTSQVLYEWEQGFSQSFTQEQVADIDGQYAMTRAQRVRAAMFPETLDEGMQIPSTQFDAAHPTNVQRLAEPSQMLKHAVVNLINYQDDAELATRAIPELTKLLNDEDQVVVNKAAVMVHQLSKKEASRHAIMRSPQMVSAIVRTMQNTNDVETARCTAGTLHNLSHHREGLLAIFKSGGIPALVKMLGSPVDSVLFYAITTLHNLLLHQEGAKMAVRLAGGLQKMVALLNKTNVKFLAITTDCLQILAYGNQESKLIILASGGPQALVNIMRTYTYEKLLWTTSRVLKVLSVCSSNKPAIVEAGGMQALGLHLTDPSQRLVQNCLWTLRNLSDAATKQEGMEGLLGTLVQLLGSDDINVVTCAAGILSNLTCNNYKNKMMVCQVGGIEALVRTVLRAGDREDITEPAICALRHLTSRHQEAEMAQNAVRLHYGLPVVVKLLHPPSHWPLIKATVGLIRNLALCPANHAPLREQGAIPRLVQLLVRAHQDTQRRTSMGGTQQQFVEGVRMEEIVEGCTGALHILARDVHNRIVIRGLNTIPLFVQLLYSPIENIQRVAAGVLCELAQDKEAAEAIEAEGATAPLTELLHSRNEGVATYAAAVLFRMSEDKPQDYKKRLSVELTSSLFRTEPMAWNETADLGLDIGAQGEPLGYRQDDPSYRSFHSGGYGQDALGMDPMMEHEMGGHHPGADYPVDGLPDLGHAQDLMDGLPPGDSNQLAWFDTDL

T2: Bcat-Halo (UniProt P35222 1-781)
T2 sequence (looked up): T1 sequence (looked up)

B1: I-1509: Ac-PL3-Asp-Phe-B5-Asp-Asp-Ala-Ala-Phe-Leu-PyrS2-3Thi-BztA-Gln-NH2 (peptide)
peptide: Ac-[αAllylPro]DF[B5(5)]DDAAFL[PyrS2(4)][3Thi][Bta]Q-NH2
modifications: staple 1-4, 4-11; not fully specified; printed as I-1509: Ac-PL3-Asp-Phe-B5-Asp-Asp-Ala-Ala-Phe-Leu-PyrS2-3Thi-BztA-Gln-NH2; reading uncertain
B2: I-2120 (peptide)
peptide: Ac-[αAllylPro]D[tBuAla][B5(4)]DHAA[Phe(3-COOH)][hSer][PyrS2(4)][3Thi][Bta]Q-NH2
modifications: staple 1-4, 4-11; reading uncertain; also: earlier eluting HPLC isomer composition, printed as Ac-PL3-Asp-Npg-B5-Asp-His-Ala-Ala-3COOHF-Hse-PyrS2-3Thi-BztA-Gln-NH2

target: T1, B-cat-Halo (beta-catenin HaloTag …); assay: cell-based or functional assay

Binder	NanoBRET Abs IC50 [µM]
B1	24.5
Ac-[αAllylPro]D[tBuAla][B5(27)]DDA[MorphAsn]FL[PyrS2][3Thi][Bta]Q-NH2 (staple 1-4, 4-11) [I-1507: Ac-PL3-Asp-Npg-B5-Asp-Asp-Ala-MorphAsn-Phe-Leu-PyrS2-3Thi-BztA-Gln-NH2]	> 20
Ac-[αAllylPro]DF[B5(27)]DDAAFL[PyrS2][3Thi][Bta][hSer]-NH2 (staple 1-4, 4-11) [I-1510: Ac-PL3-Asp-Phe-B5-Asp-Asp-Ala-Ala-Phe-Leu-PyrS2-3Thi-BztA-Hse-NH2]	31.8
Ac-[αAllylPro]D[tBuAla][B5(27)]DDA[F2PipAbu]FL[PyrS2][3Thi][Bta]Q-NH2 (staple 1-4, 4-11) [I-1505: Ac-PL3-Asp-Npg-B5-Asp-Asp-Ala-F2PipAbu-Phe-Leu-PyrS2-3Thi-BztA-Gln-NH2]	> 20

target: T2, Bcat-Halo; assay: cell-based or functional assay

Binder	NanoBRET Abs IC50 [µM]
Ac-[αAllylPro]D[tBuAla][B5(4)]DHAA[Phe(3-COOH)]L[PyrS2″][3Thi][Bta]Q-NH2 (staple 1-4, 4-11; also: later eluting HPLC isomer composition) [I-2123]	26.9
Ac-[αAllylPro]D[tBuAla][B5(4)]DWAA[Phe(3-COOH)]N[PyrS2″][3Thi][Bta]Q-NH2 (staple 1-4, 4-11) [I-2127]	40.8
Ac-[αAllylPro]D[tBuAla][B5(4)]D[Phe(3-COOH)]A[dA]FL[PyrS2″][2F3MeF][Bta]A-NH2 (staple 1-4, 4-11; also: earlier-eluting HPLC isomer composition) [I-2098]	> 20
Ac-[αAllylPro]D[tBuAla][B5(4)]DWAA[Phe(3-COOH)]L[PyrS2″][3Thi][Bta]Q-NH2 (staple 1-4, 4-11) [I-2129]	44
Ac-[αAllylPro]D[tBuAla][B5(4)]D[Phe(3-COOH)]A[dA]FL[PyrS2″][3Thi][Bta][dA]-NH2 (staple 1-4, 4-11) [I-2100]	> 20
Ac-[αAllylPro]D[tBuAla][B5(4)]D[hTyr]AA[Phe(3-COOH)][hSer][PyrS2″][3Thi][Bta]Q-NH2 (staple 1-4, 4-11; also: earlier eluting HPLC isomer composition) [I-2116]	33.4
Ac-[αAllylPro]N[Cha][B5(4)]DQ[Lys(iPr)]AFN[PyrS2″]F[Bta]N-NH2 (staple 1-4, 4-11) [I-2111]	> 20
Ac-[αAllylPro]D[tBuAla][B5(4)]D[hTyr]AA[Phe(3-COOH)]N[PyrS2″][3Thi][Bta]Q-NH2 (staple 1-4, 4-11; also: later eluting HPLC isomer composition) [I-2115]	> 20
Ac-[αAllylPro]D[tBuAla][B5(4)]DHAA[Phe(3-COOH)]N[PyrS2″][3Thi][Bta]Q-NH2 (staple 1-4, 4-11; also: later eluting HPLC isomer composition) [I-2119]	> 20
Ac-[αAllylPro]D[tBuAla][B5(4)]DHAA[Phe(3-COOH)][hSer][PyrS2″][3Thi][Bta]Q-NH2 (staple 1-4, 4-11; also: later eluting HPLC isomer composition) [I-2121]	> 20
Ac-[αAllylPro]D[tBuAla][B5(4)]DWAA[Phe(3-COOH)][hSer][PyrS2″][3Thi][Bta]Q-NH2 (staple 1-4, 4-11) [I-2128]	27
Ac-[αAllylPro]D[tBuAla][B5(4)]D[hTyr]AA[Phe(3-COOH)]N[PyrS2″][3Thi][Bta]Q-NH2 (staple 1-4, 4-11; also: earlier eluting HPLC isomer composition) [I-2114]	> 20
Ac-[αAllylPro]D[tBuAla][B5(4)]DHAA[Phe(3-COOH)]N[PyrS2″][3Thi][Bta]Q-NH2 (staple 1-4, 4-11; also: earlier eluting HPLC isomer composition) [I-2118]	> 20
B2	37.2
Ac-[αAllylPro]D[tBuAla][B5(4)]DYAA[Phe(3-COOH)][hSer][PyrS2″][3Thi][Bta]Q-NH2 (staple 1-4, 4-11; also: earlier eluting HPLC isomer composition) [I-2124]	38.9
Ac-[αAllylPro]D[tBuAla][B5(4)]DYAA[Phe(3-COOH)][hSer][PyrS2″][3Thi][Bta]Q-NH2 (staple 1-4, 4-11; also: later eluting HPLC isomer composition) [I-2125]	41.2
Ac-[αAllylPro]N[Cha][B5(4)]DQ[Lys(iPr)]AFN[PyrS2″]F[Bta]H-NH2 (staple 1-4, 4-11) [I-2109]	> 20
Ac-[αAllylPro]D[tBuAla][B5(4)]D[Phe(3-COOH)]A[dA]FL[PyrS2″][3Thi][Bta]A-NH2 (staple 1-4, 4-11; also: earlier-eluting HPLC isomer composition) [I-2096]	> 20
Ac-[αAllylPro]D[tBuAla][B5(4)]D[Phe(3-COOH)]A[dA]FL[PyrS2″][3Thi][Bta]A-NH2 (staple 1-4, 4-11; also: later-eluting HPLC isomer composition) [I-2097]	22.3
Ac-[αAllylPro]D[tBuAla][B5(4)]DHAA[Phe(3-COOH)]L[PyrS2″][3Thi][Bta]Q-NH2 (staple 1-4, 4-11; also: earlier eluting HPLC isomer composition) [I-2122]	34.4
Ac-[αAllylPro]D[tBuAla][B5(4)]D[hTyr]AA[Phe(3-COOH)][hSer][PyrS2″][3Thi][Bta]Q-NH2 (staple 1-4, 4-11; also: later eluting HPLC isomer composition) [I-2117]	> 20
Ac-[αAllylPro]D[tBuAla][B5(4)]DYAA[Phe(3-COOH)]L[PyrS2″][3Thi][Bta]Q-NH2 (staple 1-4, 4-11) [I-2126]	29.5
Ac-[αAllylPro]N[Cha][B5(4)]DQ[Lys(iPr)]AF[Lys(iPr)][PyrS2″]F[Bta][hSer]-NH2 (staple 1-4, 4-11) [I-2102]	> 20
Ac-[αAllylPro]N[Cha][B5(4)]DQ[Lys(iPr)]AFN[PyrS2″]F[Bta]K-NH2 (staple 1-4, 4-11) [I-2110]	> 20
